{"source": "patent US20110182814A1", "about": "(GENERAL HOSPITAL, published 2011)", "binders": {"B1": {"name": "phage clone 27 displaying the peptide KTLLPTP (SEQ ID NO:1) (peptide)", "peptide": "KTLLPTP", "modifications": "also: displayed on M13 phage coat protein, phage labelled with FITC or biotin", "notes": "Tested as whole labelled phage, not as free peptide; also called FITC-27; PDAC-27; not shown: M13 phage coat protein carrying the 7-mer of the phD7 library (New England Biolabs)"}}, "key": {"[1]": {"target": "T1, plectin-1 (mouse, of mouse PDAC cells) (mouse, UniProt Q9QXS1 1-4691)", "T1 construct": "whole, on cells; On intact cells in the pulldown (photo-crosslink) and in flow cytometry; From cell lysate on a blot in the far western and the western; also called 500 kDa band", "assay": "flow cytometry, fluorescein-labelled phage on mouse PDAC cells against normal ductal cells", "procedure": "(§1) Mouse Pancreatic ductal adenocarcinoma (PDAC) cells, human PDAC cells (i.e. MNA, 8988, SW1990, PaCa-2, ASPC), normal human ductal cells and normal pancreatic cells were incubated with 1 mM (FITC) FITC-labeled phage clone 27 or unrelated phage clone (amino acid sequence SNLHPSD, negative control (SEQ ID NO:XX)) for 1 hour at 37° C., washed 3× with DPBS and visualized by fluorescent microscopy (Nikon Eclipse TE2000-S, Insight QE, 40× objective). The cells were then harvested by incubation with trypsin, centrifuged, and analyzed (10,000 cells/sample) by flow cytometry on a Beckton Dickinson FACSCalibur (San Jose, Calif.). […] Mean fluorescence was plotted against cell number to show relative uptake between cell types.\nValidation of Clone 27 as a PDAC marker (FIG. 1B) was done in experiments described herein, in addition to testing clones 1 (SGVEFLH, SEQ ID NO:4), 9 (SKKDTHH, SEQ ID NO:5), 15 (TMAPSIK, SEQ ID NO:6), 17 (TQHQVTA, SEQ ID NO:7), and 22 (VNDRNVK, SEQ ID NO:8). The phage coat proteins were fluorescein labeled then the extent of phage clone binding and specificity quantified for mouse PDAC and normal ductal cells via flow cytometry (FIG. 1B). […] Phage clone 15 was second in affinity with the remainder having nearly identical specificity."}, "[2]": {"target": "human plectin-1 (of human PDAC cell lines) (human, UniProt Q15149 1-4684)", "sequence (Q15149 whole entry)": "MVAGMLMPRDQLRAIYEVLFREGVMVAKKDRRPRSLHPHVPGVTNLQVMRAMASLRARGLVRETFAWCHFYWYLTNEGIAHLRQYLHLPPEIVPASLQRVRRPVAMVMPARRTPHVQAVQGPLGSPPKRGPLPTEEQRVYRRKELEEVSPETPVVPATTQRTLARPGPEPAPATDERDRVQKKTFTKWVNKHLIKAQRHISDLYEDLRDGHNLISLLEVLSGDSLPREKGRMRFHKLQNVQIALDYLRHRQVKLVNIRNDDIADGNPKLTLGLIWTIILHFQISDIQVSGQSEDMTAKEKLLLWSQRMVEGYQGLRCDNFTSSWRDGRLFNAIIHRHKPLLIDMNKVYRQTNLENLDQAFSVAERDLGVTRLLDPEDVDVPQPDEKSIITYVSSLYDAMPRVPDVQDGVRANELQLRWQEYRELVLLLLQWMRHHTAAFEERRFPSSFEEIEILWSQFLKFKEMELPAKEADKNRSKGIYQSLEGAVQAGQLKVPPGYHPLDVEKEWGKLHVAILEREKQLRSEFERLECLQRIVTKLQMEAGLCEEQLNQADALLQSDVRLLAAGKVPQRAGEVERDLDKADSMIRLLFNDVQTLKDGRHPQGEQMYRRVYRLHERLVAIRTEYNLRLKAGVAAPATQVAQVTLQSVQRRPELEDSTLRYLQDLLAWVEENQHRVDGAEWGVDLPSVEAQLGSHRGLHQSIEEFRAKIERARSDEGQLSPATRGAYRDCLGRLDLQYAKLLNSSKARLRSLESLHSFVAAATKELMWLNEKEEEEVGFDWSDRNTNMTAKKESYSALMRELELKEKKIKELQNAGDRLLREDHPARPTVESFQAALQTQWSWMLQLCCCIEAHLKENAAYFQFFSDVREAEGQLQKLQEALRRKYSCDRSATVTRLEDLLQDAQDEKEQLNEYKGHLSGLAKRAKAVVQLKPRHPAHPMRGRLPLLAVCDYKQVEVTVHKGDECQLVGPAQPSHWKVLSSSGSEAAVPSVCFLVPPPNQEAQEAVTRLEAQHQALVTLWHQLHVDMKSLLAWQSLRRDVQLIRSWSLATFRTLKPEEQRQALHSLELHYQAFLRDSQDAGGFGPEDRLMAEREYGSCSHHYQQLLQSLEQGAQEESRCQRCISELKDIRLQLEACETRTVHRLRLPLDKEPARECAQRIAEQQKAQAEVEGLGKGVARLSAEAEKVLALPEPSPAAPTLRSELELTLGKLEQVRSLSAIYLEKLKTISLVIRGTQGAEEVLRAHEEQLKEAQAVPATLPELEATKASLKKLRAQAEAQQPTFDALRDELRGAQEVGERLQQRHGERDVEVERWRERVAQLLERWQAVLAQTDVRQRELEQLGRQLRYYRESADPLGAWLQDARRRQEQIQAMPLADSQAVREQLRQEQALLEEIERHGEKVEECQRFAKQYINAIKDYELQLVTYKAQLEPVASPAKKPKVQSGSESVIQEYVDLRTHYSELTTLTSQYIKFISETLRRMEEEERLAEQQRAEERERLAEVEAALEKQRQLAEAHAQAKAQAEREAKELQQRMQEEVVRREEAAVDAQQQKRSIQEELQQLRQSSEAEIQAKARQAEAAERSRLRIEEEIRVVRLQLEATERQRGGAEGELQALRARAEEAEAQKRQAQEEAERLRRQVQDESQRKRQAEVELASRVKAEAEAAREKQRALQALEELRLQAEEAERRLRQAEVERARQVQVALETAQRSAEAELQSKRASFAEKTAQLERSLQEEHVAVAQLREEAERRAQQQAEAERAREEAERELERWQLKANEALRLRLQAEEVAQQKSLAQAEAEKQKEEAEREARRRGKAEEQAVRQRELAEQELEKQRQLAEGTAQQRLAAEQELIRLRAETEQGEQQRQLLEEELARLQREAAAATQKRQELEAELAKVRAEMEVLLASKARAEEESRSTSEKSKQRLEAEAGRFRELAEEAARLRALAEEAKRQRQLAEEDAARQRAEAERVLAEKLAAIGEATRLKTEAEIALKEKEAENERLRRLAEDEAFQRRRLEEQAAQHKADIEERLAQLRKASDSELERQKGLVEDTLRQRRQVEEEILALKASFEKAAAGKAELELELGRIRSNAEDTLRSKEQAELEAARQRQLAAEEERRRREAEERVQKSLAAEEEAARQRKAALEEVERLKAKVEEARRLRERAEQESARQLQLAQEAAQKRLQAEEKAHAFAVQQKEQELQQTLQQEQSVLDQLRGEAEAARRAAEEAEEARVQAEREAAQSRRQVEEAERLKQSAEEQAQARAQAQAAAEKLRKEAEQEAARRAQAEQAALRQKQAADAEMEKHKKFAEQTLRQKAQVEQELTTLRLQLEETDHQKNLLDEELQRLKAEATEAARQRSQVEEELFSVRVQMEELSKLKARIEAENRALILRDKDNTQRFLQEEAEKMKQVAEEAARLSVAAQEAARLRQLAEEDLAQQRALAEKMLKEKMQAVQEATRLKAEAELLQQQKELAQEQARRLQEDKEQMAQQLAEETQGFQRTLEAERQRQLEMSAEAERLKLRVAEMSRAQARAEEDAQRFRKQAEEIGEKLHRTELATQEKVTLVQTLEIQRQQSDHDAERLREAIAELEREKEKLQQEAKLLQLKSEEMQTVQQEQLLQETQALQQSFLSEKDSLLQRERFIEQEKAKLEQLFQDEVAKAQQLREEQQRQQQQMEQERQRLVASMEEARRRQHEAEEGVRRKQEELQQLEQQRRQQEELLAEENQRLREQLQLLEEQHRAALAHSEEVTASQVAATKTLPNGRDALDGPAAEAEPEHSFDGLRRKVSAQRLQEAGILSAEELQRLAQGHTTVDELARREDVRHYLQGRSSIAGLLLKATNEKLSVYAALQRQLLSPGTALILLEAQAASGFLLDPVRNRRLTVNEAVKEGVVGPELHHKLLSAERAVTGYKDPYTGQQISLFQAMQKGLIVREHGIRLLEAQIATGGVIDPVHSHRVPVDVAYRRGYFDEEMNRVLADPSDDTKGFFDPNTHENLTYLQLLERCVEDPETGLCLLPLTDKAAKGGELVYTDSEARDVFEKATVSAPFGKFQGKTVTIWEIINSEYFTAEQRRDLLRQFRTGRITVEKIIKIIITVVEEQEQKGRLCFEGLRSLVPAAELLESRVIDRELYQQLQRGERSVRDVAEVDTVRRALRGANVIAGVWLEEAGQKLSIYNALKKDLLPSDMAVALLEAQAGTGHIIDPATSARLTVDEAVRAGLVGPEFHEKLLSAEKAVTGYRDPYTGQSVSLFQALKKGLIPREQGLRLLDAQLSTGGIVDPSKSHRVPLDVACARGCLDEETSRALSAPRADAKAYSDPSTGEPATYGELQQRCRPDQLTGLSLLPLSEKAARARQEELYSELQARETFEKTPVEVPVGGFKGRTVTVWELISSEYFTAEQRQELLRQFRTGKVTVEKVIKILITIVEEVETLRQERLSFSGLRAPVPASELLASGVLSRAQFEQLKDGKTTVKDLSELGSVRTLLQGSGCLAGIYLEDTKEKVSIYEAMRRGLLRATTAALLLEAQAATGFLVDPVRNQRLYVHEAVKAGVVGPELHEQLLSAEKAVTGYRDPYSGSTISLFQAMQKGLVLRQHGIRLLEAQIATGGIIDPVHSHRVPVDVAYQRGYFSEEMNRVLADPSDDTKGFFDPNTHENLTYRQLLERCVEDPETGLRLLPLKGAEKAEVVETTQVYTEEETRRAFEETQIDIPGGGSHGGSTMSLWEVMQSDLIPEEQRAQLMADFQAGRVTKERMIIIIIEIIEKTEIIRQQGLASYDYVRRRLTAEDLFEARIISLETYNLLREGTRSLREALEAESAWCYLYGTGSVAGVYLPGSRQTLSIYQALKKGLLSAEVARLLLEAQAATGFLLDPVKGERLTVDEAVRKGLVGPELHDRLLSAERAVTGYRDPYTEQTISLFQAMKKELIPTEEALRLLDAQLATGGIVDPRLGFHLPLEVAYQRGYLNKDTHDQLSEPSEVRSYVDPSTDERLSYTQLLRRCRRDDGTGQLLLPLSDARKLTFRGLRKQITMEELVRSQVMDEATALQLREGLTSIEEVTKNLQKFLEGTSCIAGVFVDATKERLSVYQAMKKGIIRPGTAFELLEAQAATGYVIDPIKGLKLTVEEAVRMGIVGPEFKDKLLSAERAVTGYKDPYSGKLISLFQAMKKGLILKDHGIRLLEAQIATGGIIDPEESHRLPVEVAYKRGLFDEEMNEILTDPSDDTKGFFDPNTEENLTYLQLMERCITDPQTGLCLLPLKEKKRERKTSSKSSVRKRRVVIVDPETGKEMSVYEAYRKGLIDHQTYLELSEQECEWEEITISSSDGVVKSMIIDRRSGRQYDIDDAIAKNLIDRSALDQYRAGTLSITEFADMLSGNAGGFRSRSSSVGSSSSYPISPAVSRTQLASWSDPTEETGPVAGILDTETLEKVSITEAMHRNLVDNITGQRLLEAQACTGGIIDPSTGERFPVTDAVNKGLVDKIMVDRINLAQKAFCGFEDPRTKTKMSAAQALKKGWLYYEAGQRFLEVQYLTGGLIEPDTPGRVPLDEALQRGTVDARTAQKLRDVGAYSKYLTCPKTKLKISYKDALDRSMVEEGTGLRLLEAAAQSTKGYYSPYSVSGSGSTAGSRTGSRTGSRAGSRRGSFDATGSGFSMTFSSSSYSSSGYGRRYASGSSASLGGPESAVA", "assay": "flow cytometry, FITC-labelled phage on PDAC cell lines, average over lines, reference is the FITC-labelled unrelated phage clone", "procedure": "as §1\nThe specificity of Clone 27 for human PDAC cells was evaluated as described in this example. Clone 27 and an unrelated phage clone were labeled with FITC, producing FITC-27 and a FITC-unrelated phage clone (negative control). Mouse PDAC cells as a positive control along with five human PDAC cell lines and with normal human ductal cells were incubated with each type of clone and then uptake of the clone was analyzed via fluorescence-activated cell sorter (FACS)."}}, "note": "Ends that are not written are not given here."}
{"binder": "B1", "values": [{"measurement": "specificity over normal ductal cells", "setting": "[1]", "result": 112, "unit": "fold"}, {"measurement": "specificity (ratio of clone 27/unrelated clone mean fluorescence)", "setting": "[2]", "result": 141, "unit": "ratio"}]}
